# T1: PIF4 (Arabidopsis thaliana, UniProt Q8W2F3 1-430)
# T1 sequence: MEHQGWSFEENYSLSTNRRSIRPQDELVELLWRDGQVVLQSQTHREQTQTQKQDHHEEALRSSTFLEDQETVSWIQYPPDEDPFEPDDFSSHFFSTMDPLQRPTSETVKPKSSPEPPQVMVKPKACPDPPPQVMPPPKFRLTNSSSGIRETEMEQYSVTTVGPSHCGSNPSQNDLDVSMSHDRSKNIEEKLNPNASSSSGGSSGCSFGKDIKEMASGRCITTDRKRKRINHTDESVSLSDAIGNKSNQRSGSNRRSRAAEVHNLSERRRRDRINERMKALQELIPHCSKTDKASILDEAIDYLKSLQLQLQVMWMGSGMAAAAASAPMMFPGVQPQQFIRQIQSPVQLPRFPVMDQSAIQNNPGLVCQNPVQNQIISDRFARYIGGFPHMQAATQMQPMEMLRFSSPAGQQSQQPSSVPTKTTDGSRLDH
# B1: pCLE44 PBE1 WT (dsDNA)
# DNA 1: GTAATATAGTGAGGTGGTCACATGTAATGGATTCAATCCAC
# DNA 2: GTGGATTGAATCCATTACATGTGACCACCTCACTATATTAC
# B2: pPIL1 G-box (dsDNA)
# DNA 1: TAATGGCGTGAAGGTTCTTTCCGCTCACGTGGGCCTTTTG
# DNA 2: CAAAAGGCCCACGTGAGCGGAAAGAACCTTCACGCCATTA
# What was measured:
# PIF4 [1] = target: T1, PIF4; assay: EMSA; EMSA according to Martinez et al. 2018 with minor modifications, LightShift chemiluminescent kit; buffer, salt, pH and temperature not stated; conditions: protein: ivt; label: 5' biotin (probe); blunt
# PIF4 [2] = target: T1, PIF4; assay: EMSA; positive control; EMSA according to Martinez et al. 2018 with minor modifications, LightShift chemiluminescent kit; buffer, salt, pH and temperature not stated; conditions: protein: ivt; label: 5' biotin; blunt
Binder,binding result (PIF4 [1]),binding result (PIF4 [2])
B1,binds,
B2,,binds

# Source: paper PMC9638722, “Light regulates xylem cell differentiation via PIF in Arabidopsis”
